According to a protein production outcome set (Wang et al. 2014):

Test: label from the status in PepcDB records

## MVTVVVPAHNEDVVIAQTAKAILDMKYPRDKLEIILFADNCEDNTYQEMQSIKALPQYADRDLTLINRSGTGGKAGVLNDALKIAKGDYICVYDADAMPEKNALYFLVQKVMEDPERHVAAFGRNKTRNANQNFLTRCINQEIVVTQRIQHVGMWHLGKIGRIPGTNFIINTEFVKSIGGWRNGALTEDTDISFKIMQSGKLIALAYNSEAFQQEPETLKSYYLQRKRWAKGNYEVVIANFKHLFGRGNWRVKWEVFYYTCTFFWFNAAIVLSDILFFSNLIALIIGLFKPGVQVPFAFDANNIYMAQLLLFNWFLMILLYLLQISISQATQYGQATVKQIWIALLAYFTYTQLFIIVSISSVASVMMDKILHREGTKWVKTKRFAG
  protein production: failed

## MATGQDRVVALVDMDCFFVQVEQRQNPHLRNKPCAVVQYKSWKGGGIIAVSYEARAFGVTRSMWADDAKKLCPDLLLAQVRESRGKANLTKYREASVEVMEIMSRFAVIERASIDEAYVDLTSAVQERLQKLQGQPISADLLPSTYIEGLPQGPTTAEETVQKEGMRKQGLFQWLDSLQIDNLTSPDLQLTVGAVIVEEMRAAIERETGFQCSAGISHNKVLAKLACGLNKPNRQTLVSHGSVPQLFSQMPIRKIRSLGGKLGASVIEILGIEYMGELTQFTESQLQSHFGEKNGSWLYAMCRGIEHDPVKPRQLPKTIGCSKNFPGKTALATR
  protein production: failed

## MFSPDSPISEFVSISTHVAPSVVKTTAGDYLLIWHLGGLPFVGRDEFELEQRHNTFNRLLQTLRAPDFANVAFWVHDVRRRRRIGAGGRFKQAFNQTLSDEYYTALSSQKIMQNELYFSMIYRPVVTGRRLVEKSANPDKIRAEEEQAVAKVVELATNVEAVLKDYAPYRLGMYEAKNGLVFSETLEFLGYLLNRIDEPVPVLPAPVPAYLPVSKHMFANKTGDFVIRTPDGINHFGAILNIKEYADGTYPGILNGLKYLDSEYVMTHSFSPVGRHDALKVLERTKGMMVSSGDKSSTQIRDLDVAMDDVASGNFVLGEYHFTLAVYADSQEKLARQIATTRAELSNAGFVSAKEDLAIASSFYSQLPGNWRFRTRIANLSSLNFLGLSPLHNFAQGKQHNNPWGDCVTTLQTTNGQPYYFNFHATHPSENSLGEKAIGNTMVIGKSGTGKTALINFLLSQVQKFDPIPTIFFFDKDRGAEIFVRACGGNYLALENGSPTGFNPFQCERNEANTQFLAELIKVLGGKAEYSAREEEDIYRAVEGMLDTPMHLRSMSNFRKSLPNMGDDGLYARLRRWTAGNSLGWVFDNPVDTIDLTRASIIGFDYTDVIDNAEVRVPVINYLLHRLEALIDGRPLIYVMDEFWKILDGKGGLKEFAKNKQKTIRKQNGLGIFATQSPEDALASDIAAALIEQTATMILLPNPNASRDDYMEGLKLTDAEYQVVVSLDERSRCFLVKQGHASAVCQLNLRGMDDALSVISSSTDNIEIMHQILAGKAGKLGVTVDQLTPEQWLEHHHHHH
  protein production: failed

## HPKLVSSTPAEGSEGAAPAKIELHFSENLVTQFSGAKLVMTAMPGMEHSPMAVKAAVSGGGDPKTMVITPASPLTAGTYKVDWRAVSSDTHPITGSVTFK
  protein production: not failed

## MNMIDQLNITDFQVFTDENSDKSVSKIYKFSSKMILSDFHAQPHGFLNGGASLALAEITAGMASNAIGSSQYFALGQSISANHLNSKKCEGFVNACGLLLKNGKRNHVWEIKITDENETLISQITVVNALVPQKNSDKLEHHHHHH
  protein production: failed

## MLSANQIKFLRSLRERKYRLREQAFAVEGPKLVGEMLPFYRCRMLVGTAAMLRAVSTPHDAEVVELPESFDFKRISTQTTPQPLMAVFDLPAEPEPVVEGLTLLLDGVQDPGNVGTILRTADWFGIRHVWLGTGSADVFSPKVVQASMGALARVQPTPLKNTVDTLAYFRRQGIPVYGAFLDGQSLYEAPLPNFTEPAILVLGSEGRGISPEVAAEITDRLTIPASGLSVKGHTESLNVAIATAILCSEWRRRS
  protein production: not failed

## MSLNILVIGTGAIGSFYGALLAKTGHCVSVVARSDYETVKAKGIRIRSATLGDYTFRPAAVVRSAAELETKPDCTLLCIKVVEGADRVGLLRDAVAPDTGIVLISNGIDIEPEVAAAFPDNEVISGLAFIGVTRTAPGEIWHQAYGRLMLGNYPGGVSERVKTLAAAFEEAGIDGIATENITTARWQKCVWNAAFNPLSVLSGGLDTLDILSTQEGFVRAIMQEIRAVAAANGHPLPEDIVEKNVASTYKMPPYKTSMLVDFEAGQPMETEVILGNAVRAGRRTRVAIPHLESVYALMKLLELRTSKSLWGNEGHHHHHH
  protein production: not failed

## MLRSSSVDRKREEEPRLSYMIARVDRIISKYLTEHLSALEISLPQFTALSVLAAKPNLSNAKLAERSFIKPQSANKILQDLLANGWIEKAPDPTHGRRILVTVTPSGLDKLNQCNQVVQQLEAQMLQGVDINLAFLIRNNLELMVKNLSTFSSLDQSKE
  protein production: not failed

## MNREKLMKMANTVRTGGKGTVRRKKKAVHKTNTTDDKRLQSTLKRIGVNSIPAIEEVNIFKDDVVIQFINPKVQASIAANTWVVSGSPQTKKLQDILPQIISQLGPDNMDNLKKLAEQFQKQASGEGNAASATIQEEDDDDVPELVGETFETAAEEKAPAAAASS
  protein production: failed

## MGRNFLAILYFCFLFLGFLSCSNVKSMSLMAIGNYEYVRGNYQNAISNYYNLVEDEKYSAWGYYNLGVVYYSLGEYESSLRIFSYAKKTNDIFLNFNVNYNEGVIYYNQGLYHKAEVAFKEALKINPGSYNAKYNLELAIIKKRAVRDSLNSLSVEKGKNFVESNENFLRYIENLERVVWLRKIDENLAVPKEDW
  protein production: failed

## MSLTRPLRADAARNRARVLEVAYDTFAAEGLGVPMDEIARRAGVGAGTVYRHFPTKQALVVAVAEDRVRRIVDHARTLLAAEGPGEALFVFMRDMVRSAAADYGLVDALVGYGLDLEVAAPGAEAAFLATLGELLAAAQRAGTVRADVDVAVIKALLVVCKVPQVYDGEVSERVVRVIEDGLRVRSSVEGHHHHHH
  protein production: not failed

## MASSSSSPTPSAAAAVSPLTEEELTLTVKWNGKEYTVRICADDSVAELKRRICLLTTVLPKRQKLLYPKIGNKLSDDSLLLSSISFKPSLKMTMIGTVEDDIIVDQAESPEIVDDFELGKEEAVDVKDKEVNKQKLRRRIDQYKINLRTPCRQGKKLLVLDIDYTLFDHRSTAENPLQLMRPYLHEFLTAAYAEYDIMIWSATSMKWVELKMTELGVLNNPNYKVTALLDHLAMITVQSDTRGIFDCKPLGLIWALLPEFYNPGNTIMFDDLRRNFVMNPQNGLTIKPFRKAHANRDTDQELVKLTQYLLTIAELSDLSSLHHSRWESFSQDNVKRRRQE
  protein production: failed

## MNVDVLIGEILTLSMMAFALGMDAFSVGLGMGMAKLKRNQVFQIGVIIGLFHVIMPLGGMIAGQFLSGALGALAGYIGGALLLVLGIQMIVASFNKSGEQIISPHGFGLFVFAVGVSLDSFSVGLSLGLYGTKPILTIFLFGLFSMVLTWAGLLLGKKVQTWLGAYSEALGGAILLSFGLKLLLPI
  protein production: failed

## MEELVGLLRIRVKRGINLAQRDTLSSDPFVVITMGSQKLKTRVVENNCNPEWNEELTLALRHPDEPVNLIVYDKDTFTSHDKMGDAKIDIKPFLEVHKMGLQELPDGTEIKRVVPNRENCLAEASSIVSNNGKIVQNMILLLRNVECGEVEIQLEWIDIPGSRGL
  protein production: failed

## HIDLFDLDVEEPNDRIFIKGEAEEWPAYRKVPEVRENCNACGVCKDVCQYSAIYVIDKAYPLPELCHSCGACIYLCPEKAMEEVDYQTGKIVRVKSDITLTYGEMRIGEASAVFLIKQVKELMGKNAIIDSPPGASCPMVESVSDADYVILVAEPTPFGLHDLKIAAEVVSDLGLKFGVVVNKHGLPFDGIERYCKEGGVEILGKIPFSKEIAEKYSRGELLHDMKDFFVQLYEG
  protein production: failed

## MKTTQRTAGWYHVMAAVTVMIWGTTFVATKVLIKYGLSPVDILFYRFLLAYICIWFFSPRVLLAKSWQDELRFVGLGLCGGSLYFVAENTALGMTLASNVSLIICTTPILTALLAPFFYKGDKLKARLIGGSLMALIGVGLVVFNGSFILQLSPAGDILTLIAALMWAFYCLLLRRMNTHYPTLFITRKVFFYGLVTLLPLFLVYPLQTDIHILFRPVVALNLLFLGVIASMLCYIMWNTAVKQLGVVCATSYIYVVPLITLLTSAIVIDETITIVALLGSALILSGVYIAERGVNLKK
  protein production: failed

## MDPNTVSSFQVDCFLWHVRKRLADQELGDAPFLDRLRRDQKSLRGRGNTLGLDIETATRAGKQIVERILEEEPDEALKMPASRYLTDMTLEEMSRDWFMLMPKQKVAGSLCIKMDQAIMDKTIILKANFSVILDRLETLILLRAFTEEGAIVGEISPLPSLPGHTGEDVKNAIGVLIGGLEWNDNTVRVSETIQRFAWRSSDEDGRLPLPPNQKRKMARTIESEV
  protein production: not failed

## MLKKIDDSESLLDTAALAPLQRFVERECRLLDEQRFEEWLALYLPEATYWAPATRDNPDPDSQVSLFWDDKETMQTRVQRLLHPEIHSQIPASVTVRLTSNFRAAVAPGGEKDAYQVECRFIMVEDRLGSPRQQFAGTFNYLLVQNGAAFRIRQKRVDLTNCDHAFHTLTQPF
  protein production: not failed

## MPEKPTEDARFYGRRKGKPLRATRQRLLDTMLPALTLPLAGLGEGERLDPRGLFPRPVDQLWLEIGFGGGEHLVAQAAAHPEVGLIGSEVFAYGVGKALSQIDETGVDNIRLWPEDVRQVLPALPDGCLQRLFVLFPDPWPKRRHARRRMIQPARLDDFARLLADGGELRVASDDMGYVRWTLMHVTAHPAFRWTAQGPTDWRERPADWVETRYEAKALQAGRKPAYLIFRRRPRAADPGTLAEAPAGEGADNNP
  protein production: failed

## MQREKVDVLVIGAGPAGTVAASLVNKSGFKVKIVEKQKFPRFVIGESLLPRCMEHLDEAGFLDAVKAQGFQQKFGAKFVRGKEIADFNFSDQFSNGWNWTWQVPRGNFDKTLADEAARQGVDVEYEVGVTDIKFFGTDSVTTIEDINGNKREIEARFIIDASGYGRVIPRMFGLDKPSGFESRRTLFTHIKDVKRPVAAEMEGNRITAVVHKPKVWIWVIPFSNGNTSVGFVGEPSYFDEYTGTPEERMRAMIANEGHIAERFKSEEFLFEPRTIEGYAISASKLYGDGFVLTGNATEFLDPIFSSGATFAMESGSKGGKLAVQFLKGEEVNWEKDFVEHMMQGIDTFRSFVTGWYDGTLHAVFFAKNPDPDHKRMICSVLAGYVWDKNNPFVKKHNTILKTLAKVIQMGEEALEHHHHHH
  protein production: not failed

## MPDASAENPWLPLRQLTPARIALGRTGTSLPTRPQLDFQYAHAQARDAVHLPFDHAAISDGLRQRGRDSLLLHSAAADRHVYLQRPDLGRRLDEASVQRLREHAAGYDGQIDLAIVVADGLSALAVQRHTLPFLERLEEQALAEGWSLSPVVLVEQGRVAVADEIGELLRAKMSVILIGERPGLSSPDSLGLYFTWAPRVGLTDAYRNCISNVRLEGLSYGMAAHRLLYLMREACRRQLSGVNLKDEAEVQALDGEAPRTGNFLLAR
  protein production: failed

## MNYEIIDCIDSGTEYCPCHLAESGNCILCSQLNGKDFCDCVNWKGVCIYQEYTWNHNKAKKERSECICKIIKREEIDNNLIVLTIFIRKKLAEDLLYPGSYVFLRPTKSSRYYSSPISIMEASSDENIIKVIIEVKGIKTKSINELKEKDDIVLKGPYWNGVLGLKNIHSAKEGISLIIARGIGEAPIVPIMKKLYSNGNKVVVIADRGKFKANLIDKYLEEFSSETYNFNTLNKDGELPEDFKDFLLNFIRYNKVNLIHISGPNILTSKILDVVDEDIKISCSNNAKMCCGEGICGACSNIYDDDKMKRMCKVQIDPRYLFKGLRSI
  protein production: failed
